How the values were obtained:
[1] = biological target: T1, human protein GST-Asf1 1-156 (human, UniProt Q9Y294 1-156); assay: competition on GST column: GST-Asf1 1-156 beads loaded with histones H3-H4, elution with 0, 5, 10, 50 and 100 µM peptide; released histone H3 shown by Western blot (anti-H3, anti-GST)
T1 construct: range 1-156; also called GST-Asf1a; GST beads linked to Asf1; not shown: GST tag
Protocol: The human protein GST-Asf1 1-156 was produced and then incubated with GST beads (glutathione S transferase, Sigma). […] After washing with 50 mM Tris buffer pH8, 150 mM NaCl, 1 mM EDTA, 1 mM DTT, 0.5% NP40, the beads were incubated with different concentrations of peptide (0 to 1 mM) dissolved in the same buffer.

[2] = biological target: T2, Asf1 (1-156), conserved N-terminal domain of human Asf1 (human, UniProt Q9Y294 1-156); assay: ITC (microcalorimetry)
T2 construct: range 1-156; The ITC legend says Asf1 1-156; Recombinant, cloned in peTM30; also called Asf1a 1-156
T2 sequence (Q9Y294 1-156 limits assumed): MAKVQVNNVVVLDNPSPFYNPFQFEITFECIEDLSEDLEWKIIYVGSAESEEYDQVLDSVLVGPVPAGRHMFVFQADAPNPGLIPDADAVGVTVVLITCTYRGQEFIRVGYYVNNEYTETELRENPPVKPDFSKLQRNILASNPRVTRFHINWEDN
Protocol: (§1) All calorimetry experiments were carried out in 50 mM Tris buffer pH 7.4 at 5° C., unless otherwise indicated. Peptides were introduced in the syringe at a concentration of […], and Asf1 was added to the cuvette at a concentration of 30 μM or 10 μM. Calorimety tests were also conducted at 25° C. or in 50 mM Tris buffer 150 mM NaCl pH 7.4 to obtain more detailed information on the characteristics of the interactions studied.

[3] = biological target: T2, Asf1 (1-156), conserved N-terminal …; assay: ITC (microcalorimetry); second printing of SEQ ID No 42 in a later block of the 6th table
Protocol: as §1

T1 sequence (Q9Y294 1-156 limits assumed): as above

| Binder | Kd [2] | further results |
| --- | --- | --- |
| ASTERKWAEAARRARGAGGVTLNGAG [Peptide i5mut (control peptide)] | – | binding result [1]: no binding (tested: 100 µM) |
| GAMGTIMPKDIQLARRIRG (The N-terminal GAMG comes from the cloning vector) [peptide i1 (fragment of histone H3, α3 helix)] | 8700 nM | – |
| GAMGTITPKEAQLARRIEGAGASVTLNGFG [inhibitor peptide Asf1/H3-H4 of SEQ ID No 44] | 660 nM | – |
| GAMGTITPKEAQLARRIRGAGASRTLNGFG [inhibitor peptide Asf1/H3-H4 of SEQ ID No 41] | 800 nM | – |
| GAMGTLTPKEAELARRIRGAGASRTLNGFG [inhibitor peptide Asf1/H3-H4 of SEQ ID No 43] | 350 nM | – |
| GAMGTLTPKEAELARRIEGAGASVTLNGFG [inhibitor peptide Asf1/H3-H4 of SEQ ID No 45] | 2000 nM | – |
| GAMGTITPKEEQLRRRIEGAGASVTLNGFG [inhibitor peptide Asf1/H3-H4 of SEQ ID No 46] | 420 nM | – |
| GAMGTLTPKEAELARRIRGAGGRTLNGFG [inhibitor peptide Asf1/H3-H4, peptide i4] | 180 nM | Kd [3]: 180 nM |
| GAMGTRTPKERRLARRIRGAGGRTLNGFG [inhibitor peptide Asf1/H3-H4 of SEQ ID No 56] | 30 nM | – |
| GAMGTRTPKEARLARRIRGAGGRTLNGFG [inhibitor peptide Asf1/H3-H4 of SEQ ID No 57] | 260 nM | – |
| GAMGTLTPKEAELARRIRGAGGVTYDGFG [inhibitor peptide Asf1/H3-H4 of SEQ ID No 61] | 100 nM | – |
| GAMGTLTPKEAELARRIRGAGGVTLNGFG [inhibitor peptide Asf1/H3-H4, peptide i4V] | 60 nM | – |
| GAMGTITPKEAQLARRIRGAGGRTLNGFG [inhibitor peptide Asf1/H3-H4, peptide i4_2] | 220 nM | – |
| GAMGTITPKEAQLARRIRGAGGVTLNGFG [inhibitor peptide Asf1/H3-H4, peptide i42V] | 350 nM | – |
| GAMGTLTPKEAELARRIRGARTLNGFG [inhibitor peptide Asf1/H3-H4 of SEQ ID No 73] | 3890 nM | – |
| GAMGTLTPKEAELARRIRGAGRTLNGFG [inhibitor peptide Asf1/H3-H4 of SEQ ID No 49] | 950 nM | – |
| GAMGTLTPKEAELARRIRGAGASGRTLNGFG [inhibitor peptide Asf1/H3-H4 of SEQ ID No 74] | 1890 nM | – |
| GAMGTITPKEAQLARRIRG [Stabilized H3 fragment of SEQ ID No 71] | 1400 nM | – |
| GAMGLTAAEHAKRSTLTPKEAQLARRIRGAGGVTLNGFG [inhibitor peptide Asf1/H3-H4 of SEQ ID No 52] | 30 nM | – |
| LTAAEHAKRSTLTPKEAELARRIRGAGGVTLNGFG [inhibitor peptide Asf1/H3-H4 of SEQ ID No 53] | 60 nM | – |

| Binder | Kd [2] | further results |
| --- | --- | --- |
| LTAAEHAKRSTLTPKEAQLARRIEGAGASVTLNGFG [inhibitor peptide Asf1/H3-H4 of SEQ ID No 54] | 120 nM | – |
| LTAAEHAKRSTLTPKEAELARRIEGAGASVTLNGFG [inhibitor peptide Asf1/H3-H4 of SEQ ID No 55] | 880 nM | – |
| GRKKRRQRRRGAMGTITPKEAQLARRIRGAGGVTLNGFG [inhibitor peptide Asf1/H3-H4, peptide TAT-i42V] | 620 nM | – |
| RRPRRPRRPRRPRRPGAMGTITPKEAQLARRIRGAGGVTLNGFG [inhibitor peptide Asf1/H3-H4, peptide RRP5-i42V] | 590 nM | – |
| RRPRRPRRPRRPRRPGAMGTIMPKDIQLARRIRGGCA [inhibitor peptide Asf1/H3-H4, peptide RRP5-i1] | 460 nM | – |
| RRPRRPRRPRRPRRPGAMGTITPKEAQLARRIRGAGGVTLNGFGCA [inhibitor peptide Asf1/H3-H4, peptide RRP5-i42V-CA] | 420 nM | – |
| GAMGTLTPKEAELARRIRG [Stabilized H3 fragment of SEQ ID No 72] | 2230 nM | – |
| GAMGTLTPKEAELARRIRGAGGVTLNGFGASTG [inhibitor peptide Asf1/H3-H4 of SEQ ID No 62] | 320 nM | – |
| GAMGTLTPKEAELARRIRGAGGVTLNGANFVSTG [inhibitor peptide Asf1/H3-H4 of SEQ ID No 63] | 1680 nM | – |
| GAMGRVPPAVRKLGNSTERKWAELARRIRGAGGVTLNGFG [inhibitor peptide Asf1/H3-H4 of SEQ ID No 64] | 80 nM | – |
| GAMGRVPPAVRKLGNASTERKWAELARRIRGAGGVTLNGFG [inhibitor peptide Asf1/H3-H4 of SEQ ID No 65] | 60 nM | – |
| ASTERKWAELARRIAGAGGVTLNGFG [Peptide i5_Aloop] | 27 nM | – |
| ASTERKWAELARRIRGAGGVTLDGFG [Peptide i5_D] | 9 nM | – |
| ASTERKWAELARRIRGAGGATLNGFG [Peptide i5_loopA] | 63 nM | – |
| ASTERKWAELARRIRGAGGRTLNGFG [Peptide i5_loopR] | 29 nM | – |
| ASTEEKWARLARRIRGAGGVTLNGFG [Peptide i5_s3] | 20 nM | – |
| ASTRRKWAELARRIRGAGGVTLNGFG [peptide of SEQ ID No 33] | 1330 nM | – |
| RRPRRPRRPRRPRRPASTERKWAELARRIRGAGGVTLNGFGGCA [inhibitor peptide Asf1/H3-H4, peptide RRP5-i5] | 670 nM | – |
| GAMGTIMPKDIQLARRIRGAGGRTLYGFG [inhibitor peptide Asf1/H3-H4, peptide i4_1] | 560 nM | – |
| GAMGTIMPKDIQLARRIRGAGASRTLYGFG [inhibitor peptide Asf1/H3-H4 of SEQ ID No 39] | 350 nM | – |

Source: US20150025016A1 (COMMISSARIAT A L ENERGIE ATOMIQUE ET AUX ENERGIES …, published 2015)
